Numbering of substitutions follows the chain as printed. Where two headings read alike, the source gives them in different places.
B1: HuIL-1F9S18/FpH (ligand)
chain: SMCKPITGTINDLNQQVWTLQGQNLVAVPRSDSVTPVTVAVITCKYPEALEQGRGDPIYLGIQNPEMCLYCEKVGEQPTLQLKEQKIMDLYGQPEPVKPFLFYRAKTGRTSTLESVAFPDWFIASSKRDQPIILTSELGKSYNTAFELNINDDYKDDDDKHHHHHH
B2: HuIL-1F9M19/FpH (ligand)
chain: B1 chain with S1M
B3: HuIL-1F6WT/FpH (ligand)
chain: MEKALKIDTPQQGSIQDINHRVWVLQDQTLIAVPRKDRMSPVTIALISCRHVETLEKDRGNPIYLGLNGLNLCLMCAKVGDQPTLQLKEKDIMDLYNQPEPVKSFLFYHSQSGRNSTFESVAFPGWFIAVSSEGGCPLILTQELGKANTTDFGLTMLFDYKDDDDKHHHHHH
B4: HuIL-1F6I7/FpH (ligand)
chain: MIDTPQRGSIQDINHRVWVLQDQTLIAVPRKDRMSPVTIALISCRHVETLEKDRGNPIYLGLNGLNLCLMCAKVGDQPTLQLKEKDIMDLYNQPEPVKSFLFYHSQSGRNSTFESVAFPGWFIAVSSEGGCPLILTQELGKANTTDFGLTMLFDYKDDDDKHHHHHH
B5: HuIL-1F8WT/FpH (ligand)
chain: MNPQREAAPKSYAIRDSRQMVWVLSGNSLIAAPLSRSIKPVTLHLIACRDTEFSDKEKGNMVYLGIKGKDLCLFCAEIQGKPTLQLKEKNIMDLYVEKKAQKPFLFFHNKEGSTSVFQSVSYPGWFIATSTTSGQPIFLTKERGITNNTNFYLDSVEDYKDDDDKHHHHHH
B6: HuIL-1F8WT (untagged full length wild type human IL-1F8) (ligand)
chain: MNPQREAAPKSYAIRDSRQMVWVLSGNSLIAAPLSRSIKPVTLHLIACRDTEFSDKEKGNMVYLGIKGKDLCLFCAEIQGKPTLQLKEKNIMDLYVEKKAQKPFLFFHNKEGSTSVFQSVSYPGWFIATSTTSGQPIFLTKERGITNNTNFYLDSVE
B7: HuIL-1F9WT/FpH (ligand)
chain: MRGTPGDADGGGRAVYQSMCKPITGTINDLNQQVWTLQGQNLVAVPRSDSVTPVTVAVITCKYPEALEQGRGDPIYLGIQNPEMCLYCEKVGEQPTLQLKEQKIMDLYGQPEPVKPFLFYRAKTGRTSTLESVAFPDWFIASSKRDQPIILTSELGKSYNTAFELNINDDYKDDDDKHHHHHH
B8: HuIL-1F8E6/FpH (ligand)
chain: MEAAPKSYAIRDSRQMVWVLSGNSLIAAPLSRSIKPVTLHLIACRDTEFSDKEKGNMVYLGIKGKDLCLFCAEIQGKPTLQLKEKNIMDLYVEKKAQKPFLFFHNKEGSTSVFQSVSYPGWFIATSTTSGQPIFLTKERGITNNTNFYLDSVEDYKDDDDKHHHHHH
B9: HuIL-1F9WT (untagged full length wild type human IL-1F9) (ligand)
chain: MRGTPGDADGGGRAVYQSMCKPITGTINDLNQQVWTLQGQNLVAVPRSDSVTPVTVAVITCKYPEALEQGRGDPIYLGIQNPEMCLYCEKVGEQPTLQLKEQKIMDLYGQPEPVKPFLFYRAKTGRTSTLESVAFPDWFIASSKRDQPIILTSELGKSYNTAFELNIND
B10: HuIL-1F8R5 (ligand)
chain: REAAPKSYAIRDSRQMVWVLSGNSLIAAPLSRSIKPVTLHLIACRDTEFSDKEKGNMVYLGIKGKDLCLFCAEIQGKPTLQLKEKNIMDLYVEKKAQKPFLFFHNKEGSTSVFQSVSYPGWFIATSTTSGQPIFLTKERGITNNTNFYLDSVE
B11: HuIL-1F9S18 (ligand)
chain: SMCKPITGTINDLNQQVWTLQGQNLVAVPRSDSVTPVTVAVITCKYPEALEQGRGDPIYLGIQNPEMCLYCEKVGEQPTLQLKEQKIMDLYGQPEPVKPFLFYRAKTGRTSTLESVAFPDWFIASSKRDQPIILTSELGKSYNTAFELNIND
B12: HuIL-1F6K6 (ligand)
chain: KIDTPQQGSIQDINHRVWVLQDQTLIAVPRKDRMSPVTIALISCRHVETLEKDRGNPIYLGLNGLNLCLMCAKVGDQPTLQLKEKDIMDLYNQPEPVKSFLFYHSQSGRNSTFESVAFPGWFIAVSSEGGCPLILTQELGKANTTDFGLTMLF
B13: HuIL-1F6 WT (untagged full length wild type human IL-1F6) (ligand)
chain: MEKALKIDTPQQGSIQDINHRVWVLQDQTLIAVPRKDRMSPVTIALISCRHVETLEKDRGNPIYLGLNGLNLCLMCAKVGDQPTLQLKEKDIMDLYNQPEPVKSFLFYHSQSGRNSTFESVAFPGWFIAVSSEGGCPLILTQELGKANTTDFGLTMLF

Legend:
Test in all cases: cell-based or functional assay
[1] = molecular target: T1, human IL-1Rrp2 (IL-1R-related protein 2) (human, UniProt Q9HB29 20-575)
T1 sequence (looked up): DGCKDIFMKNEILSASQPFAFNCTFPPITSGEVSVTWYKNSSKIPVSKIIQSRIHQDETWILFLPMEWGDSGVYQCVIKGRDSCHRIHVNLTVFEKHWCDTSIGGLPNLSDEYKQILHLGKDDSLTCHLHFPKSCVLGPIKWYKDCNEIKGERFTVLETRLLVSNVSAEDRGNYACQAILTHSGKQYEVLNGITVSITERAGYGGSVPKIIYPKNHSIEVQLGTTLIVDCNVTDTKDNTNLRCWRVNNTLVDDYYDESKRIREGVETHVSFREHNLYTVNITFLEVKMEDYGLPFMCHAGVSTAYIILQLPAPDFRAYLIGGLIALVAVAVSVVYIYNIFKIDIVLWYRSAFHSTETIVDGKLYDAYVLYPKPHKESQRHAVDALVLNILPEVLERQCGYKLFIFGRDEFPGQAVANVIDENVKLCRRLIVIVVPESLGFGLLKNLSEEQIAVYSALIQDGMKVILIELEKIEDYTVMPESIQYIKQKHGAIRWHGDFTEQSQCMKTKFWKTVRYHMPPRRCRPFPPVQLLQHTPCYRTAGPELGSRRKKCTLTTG

[2] = molecular target: T1, human IL-1Rrp2 (IL-1R-related protein 2); remark: listed apart in the source
[3] = molecular target: T1, human IL-1Rrp2 (IL-1R-related protein 2); remark: listed apart in the source

Binder | EC50, IL-8 ELISA of supernatants of Jurkat T-REx cells expressing human IL-1Rrp2 [1] [ng/mL] | EC50, luciferase reporter assay in IL-1Rrp2 transfected Jurkat cells [2] [ng/mL] | EC50, luciferase reporter assay in IL-1Rrp2 transfected Jurkat cells [3] [ng/mL] | EC50, IL-8 ELISA of supernatants of Jurkat T-REx cells expressing human IL-1Rrp2 [3] [ng/mL]
B1 | 17 | 1 | – | –
B2 | – | 1.1 | – | –
B3 | – | – | > 136 | –
B4 | 60 | 2.8 | – | –
B5 | – | – | > 258 | –
B6 | – | – | > 193 | 10500
B7 | – | – | > 332 | –
B8 | 2 | 0.2 | – | –
B9 | – | – | > 544 | 4070
B10 | 0.129 | – | – | –
B11 | 1 | – | – | –
B12 | 0.164 | – | – | –
B13 | – | – | > 212 | 12900
